# Test results reported in the nanobody polyreactivity screen of Harvey et al. (2022).
# Assay: yeast display, Sf9 membrane polyspecificity reagent, FACS + sequencing; frameworks hold sequencing errors
# Procedure, shortened: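 Genes from sorted yeast were amplified by colony PCR, read by MiSeq 2 × 250 sequencing and filtered on CDR length. These cells carried a synthetic nanobody library in Saccharomyces cerevisiae BJ5465 and were sorted by FACS into low and high (top ~1%) gates on anti-HA and streptavidin fluorescence. Polyreactivity is labelled according to the gate of origin.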
row,Sequence,polyreactivity (PSR sort gate)
1,QVQLVESGGGLVQAGGSLRLSCAASGRIFVYNVMGWYRQAPGKERELVADISVGGGSTYYADSVKGRFTISRDNAKNTVYLQMNSLKPEDTAVYYCAASYYSGQSVRDDIMYYWGQGTQVTVSS,low polyreactivity
2,QVQLVESGGGLVQAGGSLRLSCAASGRIFVYYDMGWYRQAPGKEREVVAAISSTGGSTNYADSVKGRFTISRDNAKNTVYLQMNSLKPEDTAVYYCNAALWRIAYPYGYYQYDYWGQGTQVTVSS,low polyreactivity
3,QVQLVESGGGLVQAGGSLRLSCAASGRIFVYYTMGWYRQAPGKERELVAAITGSGGSTYYADSVKGRFTISRDNAKNTVYLQMNSLKPEDTAVYYCAVYDSYRKFKYWGQGTQVTVSS,high polyreactivity
4,QVQLVESGGGLVQAGGSLRLSCAASGRIFWDYGMGWYRQAPGKERELVAVITWGGGSTYYADSVKGRFTISRDNAKNTVYLQMNSLKPEDTAVYYCAKEYHYYYWGQGTQVTVSS,low polyreactivity
5,QVQLVESGGGLVQAGGSLRLSCAASGRIFWFYAMGWYRQATGKERELVAAINTSVGRTHYADSVKGRFTISRDNAKNTVYLQMNSLKPEDTAVYYCASDVKRYGWEYGYWGQGTQVTVSS,low polyreactivity
6,QVQLVESGGGLVQAGGSLRLSCAASGRIFWFYTMGWYRQAPGKERELVAAISTSGGSTYYADSVKGRFTISRDNAKNTVYLQMNSLKPEDTAVYYCAAQNGYYPQHDYWGQGTQVTVSS,high polyreactivity
7,QVQLVESGGGLVQAGGSLRLSCAASGRIFWGYAMGWYRQAPGKERELVAAINRGSSTYYADSVKGRFTISRDNAKNTVYLQMNSLKPEDTAVYYCAVKGYLPYTGIFDYWGQGTQVTVSS,high polyreactivity
8,QVQLVESGGGLVQAGGSLRLSCAASGRIFWINALGWYRQAPGKERELVAAISWRGDSTYYADSVKGRFTISRDNAKNTVYLQMNSLKPEDTAVYYCAATWYSWGSEFDYWGQGTQVTVSS,high polyreactivity
9,QVQLVESGGGLVQAGGSLRLSCAASGRIFWRNALGWYRQAPGKERELVAAITYSGGSTYYADSVKGRFTISRDNAKNTVYVQMNSLNPEDTAVYYCNTVEGWRYYGQSLYAYYYWGQGTQVTVSS,high polyreactivity
10,QVQLVESGGGLVQAGGSLRLSCAASGRIFWRNAMGWNRQAPGKERELVAAISSGGSTYYADSVKGRFTISRDNAKNTVYLQMNSLKPEDTAVYYCAARSSWRGGSYDHFERDYWGQGTQVTVSS,high polyreactivity
11,QVQLVESGGGLVQAGGSLRLSCAASGRIFWSYAMGWYRQAPGKERELVAAISYSGGGTYYADSVKGRFTISRDNAKNTVYLQMNSLKPEDTAVYYCAAETYYAPYDYWGQGTQVTVSS,high polyreactivity
12,QVQLVESGGGLVQAGGSLRLSCAASGRIFWTNAMGWYRQAPGKERELVAAISRSGGSTYYADSVKGRFTISRDNAKNTVYLQMNSLKPEDTAVYYCAARAGRRPYDYWGQGTQVTVSS,high polyreactivity
13,QVQLVESGGGLVQAGGSLRLSCAASGRIFWTNDMGWYRQAPGKERELVAVISSDTGSTDYADSVKGRFTISRDNAKNTVYLQMNSLKPEDTAVFYCNKRGLSRVNYWGQGTQVTVSS,low polyreactivity
14,QVQLVESGGGLVQAGGSLRLSCAASGRIFWTYAMGWYRPAPGKERELVAAITWRGGSTSYADSVKGRFTISRDNAKNTVYLQMNSLKPEDTAVYYCNARYSGYSPWGNDYWGQGTQVTVSS,high polyreactivity
15,QVQLVESGGGLVQAGGSLRLSCAASGRIFWVNAMGWYRQAPGKEREFVAAISWSGGSTYADSVKGRFTISRDNAKNTVYLQMNSLKPEDTAVYYCAADRYNGRYGYWGQGTQVTVSS,high polyreactivity
16,QVQLVESGGGLVQAGGSLRLSCAASGRIFWVNAMGWYRQAPGKERELVARIRGRSGSTYYADSVKGRFTISRDNAKNTVYLQMHSLKPEDTAVYYCNADFNRKVAGTPEVDYWGQGTQVTVSS,high polyreactivity

row,Sequence,polyreactivity (PSR sort gate)
1,QVQLVESGGGLVQAGGSLRLSCAASGRIFWYNAMGWYRQAPAKERELVAGITRSGGRTYYADSVKGRFTISRDNAKNTVYLQMNSLKPEDTAVYYCAAAPYARRDYEYWGQGTQVTVSS,high polyreactivity
2,QVQLVESGGGLVQAGGSLRLSCAASGRIFWYNAMGWYRQAPGKERELVAVISTRGGRTYYADSVKGRFTISRDNAKNTVYLQMNSLKPEDTAVYYCAAEFLNKAVGGVTSIYDSWGQGTQVTVSS,low polyreactivity
3,QVQLVESGGGLVQAGGSLRLSCAASGRIFWYYAMGWYRQAPGKERELVAAINSGGNTNYADSVKGRFTISRDNAKNTVYLQMNSLKPEDTAVYYCNAGRRYDTYPGDYWGQGSQVTVSS,high polyreactivity
4,QVQLVESGGGLVQAGGSLRLSCAASGRIFWYYAMGWYRQAPGKERELVAAITRGGITTYADSVKGRYTISRDNAKNTVYLQMNSLKPEDTAVYYCNAVPWYGRMDYWGQGTQVTVSS,low polyreactivity
5,QVQLVESGGGLVQAGGSLRLSCAASGRIFWYYAMGWYRQAPGKERELVAAITRSGASTYYADSVKGRFTISRDNAKNTVYLQMNSLKREDTAVYYCAADTGRYRYVYEYYYWGLGTQVTVSS,high polyreactivity
6,QVQLVESGGGLVQAGGSLRLSCAASGRIFWYYAMGWYRQAPGKERELVARISSSGGSTYYADSVKGRFTISRDNAKNTVYLQMNSLKTDYTAVYFWAKERYSGSSRYPMDYWGQGTQVTVSS,high polyreactivity
7,QVQLVESGGGLVQAGGSLRLSCAASGRIFWYYAMGWYRQAPGKEWELVATITYSGVRTYYADSVKGRFTISRDNAKNTVYLQMNSLKPEDTAVYYCAAVPGASVYGYYWKFGYWGQGTQVTVSS,high polyreactivity
8,QVQLVESGGGLVQAGGSLRLSCAASGRIFWYYTMGWYRQAPGKERELVAAISNGGSTYYADSVKGRFTISRDNAKNTVYLQMNSLKPEDTAVYYCAAVGARGGYFRMDYWGQGTQVTVSS,high polyreactivity
9,QVQLVESGGGLVQAGGSLRLSCAASGRIFYANAMGWYRQAPGKERELVAAISSGGSTYYADSVKGRFTISRDNAKNTVYLQMNSLKPEDTAVYYCAALYWVYFYSEYGPWRYDYWGQGTQVTVSS,low polyreactivity
10,QVQLVESGGGLVQAGGSLRLSCAASGRIFYDNAMGWYRQAPGKERELVAAISYSGDSTYYADSVKGRFTISRDNAKNTVYVQMNSLKPEDTAVYYCAAVYISQGAFAYDYWGQGTQVTVSS,low polyreactivity
11,QVQLVESGGGLVQAGGSLRLSCAASGRIFYENAMGWYRQAPGKDRELVAAISGSGGSTYYADSVKGRFTISRDNAKNTVYLQMNSLKPEDTAVYYCNAYRRVPGYDYWGQGTQVTVSS,high polyreactivity
12,QVQLVESGGGLVQAGGSLRLSCAASGRIFYEYAMGWYRQAPGKDRELVAAISNSGGSTYYAHSVKGRFTISRDNAKNTVYLQMNSLQPEDTAVYYCAATVRLPNGVRYGYWGQGTQVTGSS,high polyreactivity
13,QVQLVESGGGLVQAGGSLRLSCAASGRIFYFNAKGGYRQAPGKERELVAAIRNDTRTYYADSVKGRFTISRDNAKNTVYLQLNSLKPEDTAVYYCAARVYFSVITPIKYNYWGQGTQVTVSS,high polyreactivity
14,QVQLVESGGGLVQAGGSLRLSCAASGRIFYFNAMGWYRQAPGKEREFVASINSIGDSTYYADSVKGRFTISRDYAKNTVYLQMNRLKPEDTAVYYCNADHGVINYRLDYWGQGTQVTVSS,low polyreactivity
15,QVQLVESGGGLVQAGGSLRLSCAASGRIFYFNAMGWYRQAPGKERELVAAISWSGSRTFYADSVTGRFTISRDNAKNTVYLQMNSLKPEDTAVYYCAVRGYMWNAGNTIRRDYWGQGTQVTVSS,high polyreactivity
16,QVQLVESGGGLVQAGGSLRLSCAASGRIFYFYALGWYRQAPGKERDLVAAINIGGSTNYADSVKGRFTISRDNAKNTVYLQMNSLNPEDTAVYYCNAEAYSRSDYYRYDYWGQGTQVTVSS,low polyreactivity
